Assay results: article PMC4749968, “Nanocaged enzymes with enhanced catalytic activity and increased stability against protease digestion” (Nature Communications, 2016)
Each block holds one molecule with its values, some of them ahead of it.

Key:
[1] = tested on: O=c1ccc2nc3ccc(O[C@@H]4O[C@H](CO)[C@H](O)[C@H](O)[C@H]4O)cc3oc-2c1; assay: purified protein; details: free enzyme; kcat not calibrated; conditions in supplement
LDH = tested on: T1, LDH; details: read-out: Free enzymes / Km; free enzyme; 1x TBS with 1 mM MgCl2, pH 7.5 (most assays; details in supplement)
T1 construct: gene LDHA

MDH = tested on: T2, MDH; details: read-out: Free enzymes / Km; free enzyme; 1x TBS with 1 mM MgCl2, pH 7.5 (most assays; details in supplement)
T2 construct: gene MDH2

[2] = substrate: CCn1c(=NN=c2sc3cc(S(=O)(=O)O)ccc3n2CC)sc2cc(S(=O)(=O)O)ccc21; assay: Michaelis-Menten kinetics, plate reader absorbance; assay type: biochemical, Armoracia rusticana; details: free enzyme, 1x TBS with 1 mM MgCl2, pH 7.5 (most assays; details in supplement)
Excerpt: Michaelis-Menten kinetics, plate reader absorbance on HRP

Molecule: β-Gal (Escherichia coli K-12)
- Km [1]: 58.7 ± 16.0 µM
- kcat [1]: 8.5 ± 0.6 s⁻¹

- Km (LDH): 7.2 ± 1.3 µM
- Km (MDH): 180 ± 50 µM
Molecule: NC(=O)C1=CN([C@@H]2O[C@H](COP(=O)(O)OP(=O)(O)OC[C@H]3O[C@@H](n4cnc5c(N)ncnc54)[C@H](O)[C@@H]3O)[C@@H](O)[C@H]2O)C=CC1 [NADH]

B1: HRP (Armoracia rusticana) (protein)
chain: QLTPTFYDNSCPNVSNIVRDTIVNELRSDPRIAASILRLHFHDCFVNGCDASILLDNTTSFRTEKDAFGNANSARGFPVIDRMKAAVESACPRTVSCADLLTIAAQQSVTLAGGPSWRVPLGRRDSLQAFLDLANANLPAPFFTLPQLKDSFRNVGLNRSSDLVALSGGHTFGKNQCRFIMDRLYNFSNTGLPDPTLNTTYLQTLRGLCPLNGNLSALVDFDLRTPTIFDNKYYVNLEEQKGLIQSDQELFSSPNATDTIPLVRSFANSTQTFFNAFVEAMDRMGNITPLTGTQGQIRLNCRVVNSNS
notes: 44 kDa
- Km [2]: 2,600±400 μM
- kcat [2]: 59 ± 5 s⁻¹
